Source: patent publication US20240383958A1, “APELIN RECEPTOR AGONISTS AND USES THEREOF” (VISTERRA, INC., priority 2023, published 2024)
Numbering of substitutions follows the chain as printed. Names and notes keep the numbering of the source.

B1: ELA-A (Fc fusion)
chain: DKTHTSPPSPAPEAAGGPSVFLFPPKPKDTLMISRTPEVTCVVVDVSHEDPEVKFNWYVDGVEVHNAKTKPREEQYNSTYRVVSVLTVLHQDWLNGKEYKCKVSNKALPAPIEKTISKAKGQPREPQVYTLPPSREEMTKNQVNLTCLVKGFYPSDIAVEWESNGQPENNYKTTPPVLDSDGSFFLNSTLTVDKSRWQQGNVFSCSVMHEALHNHYTQKSLSLSPGKGGGGSGGGGSGGGGSKLRKHNCLQRRCMPLHSRVPFP
B2: ELA-F (Fc fusion)
chain: B1 chain with Q251K
B3: ELA-K (Fc fusion)
chain: B1 chain with Q251I
B4: ELA-D (Fc fusion)
chain: B1 chain with S259Q
B5: ELA-C (Fc fusion)
chain: B1 chain with P256I
B6: ELA-G (Fc fusion)
chain: B1 chain with R260Y
B7: ELA-E (Fc fusion)
chain: B1 chain with S259R
B8: ELA-B (Fc fusion)
chain: B1 chain with R245N
B9: ELA-H (Fc fusion)
chain: B1 chain with L257Y
B10: ELA-L (Fc fusion)
chain: B1 chain with L250A, Q251T
B11: APL-A (Fc fusion)
chain: DKTHTSPPSPAPEAAGGPSVFLFPPKPKDTLMISRTPEVTCVVVDVSHEDPEVKFNWYVDGVEVHNAKTKPREEQYNSTYRVVSVLTVLHQDWLNGKEYKCKVSNKALPAPIEKTISKAKGQPREPQVYTLPPSREEMTKNQVNLTCLVKGFYPSDIAVEWESNGQPENNYKTTPPVLDSDGSFFLNSTLTVDKSRWQQGNVFSCSVMHEALHNHYTQKSLSLSPGKGGGGSGGGGSGGGGSQRPRLSHKGPMPF
B12: APL-M (Fc fusion)
chain: B11 chain with K250W, P254A, F255W
B13: APL-F (Fc fusion)
chain: B11 chain with M253A, F255Y
B14: APL-E (Fc fusion)
chain: B11 chain with M253H
B15: APL-H (Fc fusion)
chain: B11 chain with P254H, F255W
B16: APL-J (Fc fusion)
chain: B11 chain with M253A, P254A, F255Y
B17: APL-K (Fc fusion)
chain: B11 chain with S248Q, G251N, P254A
B18: APL-I (Fc fusion)
chain: B11 chain with M253A, P254A, F255W
B19: APL-G (Fc fusion)
chain: B11 chain with P254A
B20: APL-B (Fc fusion)
chain: B11 chain with P254V
B21: APL-L (Fc fusion)
chain: B11 chain with S248Q, G251N, P254A, F255W
B22: APL-H: Leader-Fc-linker fusion of apelin analogue QRPRLSHKGPMHW (P12H, F13W) (protein)
chain: MRAWIFFLLCLAGRALADKTHTSPPSPAPEAAGGPSVFLFPPKPKDTLMISRTPEVTCVVVDVSHEDPEVKFNWYVDGVEVHNAKTKPREEQYNSTYRVVSVLTVLHQDWLNGKEYKCKVSNKALPAPIEKTISKAKGQPREPQVYTLPPSREEMTKNQVNLTCLVKGFYPSDIAVEWESNGQPENNYKTTPPVLDSDGSFFLNSTLTVDKSRWQQGNVFSCSVMHEALHNHYTQKSLSLSPGKGGGGSGGGGSGGGGSQRPRLSHKGPMHW
B23: APL-I: Leader-Fc-linker fusion of apelin analogue QRPRLSHKGPAAW (M11A, P12A, F13W) (protein)
chain: B22 chain with M270A, H271A
B24: APL-L: Leader-Fc-linker fusion of apelin analogue QRPRLQHKNPMAW (S6Q, G9N, P12A, F13W) (protein)
chain: B22 chain with S265Q, G268N, H271A
B25: APL-A: Monovalent IgG1 Fc fused via GGGGSGGGGSGGGGS linker to wild-type apelin-13 QRPRLSHKGPMPF (protein)
chain: B22 chain with H271P, W272F
B26: APL-J: Leader-Fc-linker fusion of apelin analogue QRPRLSHKGPAAY (M11A, P12A, F13Y) (protein)
chain: B22 chain with M270A, H271A, W272Y
B27: APL-K: Leader-Fc-linker fusion of apelin analogue QRPRLQHKNPMAF (S6Q, G9N, P12A) (protein)
chain: B22 chain with S265Q, G268N, H271A, W272F
B28: APL-M: Leader-Fc-linker fusion of apelin analogue QRPRLSHWGPMAW (K8W, P12A, F13W) (protein)
chain: B22 chain with K267W, H271A

Target: T1, apelin receptor (AGTRL1) on CHO-K1 cells (UniProt P35414 1-380, limits assumed)
T1 sequence (looked up): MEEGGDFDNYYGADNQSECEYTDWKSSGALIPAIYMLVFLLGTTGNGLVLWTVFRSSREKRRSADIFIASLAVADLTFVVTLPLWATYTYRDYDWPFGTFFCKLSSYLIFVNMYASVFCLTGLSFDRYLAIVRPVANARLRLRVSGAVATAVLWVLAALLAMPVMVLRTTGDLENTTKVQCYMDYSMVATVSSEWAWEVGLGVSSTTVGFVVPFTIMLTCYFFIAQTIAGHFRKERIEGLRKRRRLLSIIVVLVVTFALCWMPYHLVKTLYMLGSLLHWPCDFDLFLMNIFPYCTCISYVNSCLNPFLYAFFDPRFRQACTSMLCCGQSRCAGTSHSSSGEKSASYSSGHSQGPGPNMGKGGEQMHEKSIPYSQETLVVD
Test: cell-based or functional assay
Conditions: not given

Molecule	ERK EC50 [nM]	beta-Arrestin EC50 (nM) Exp. 1 [nM]	beta-Arrestin EC50 (nM) Exp. 2 [nM]	cAMP EC50 (nM) Exp. 1 [nM]	cAMP EC50 (nM) Exp. 2 [nM]
B1	0.19	90.1	42.6	0.85	1.4
B2		9.59	43.5	1.01	1
B3		3.45	12.2	4.76	5.7
B4			922	10.7	4.4
B5	1.13	535	75.1	0.577	1
B6		89.1	521	9.91	14.3
B7			352	4.42	2.4
B8	0.92	1120	59.9	0.349	1.5
B9		21.9	97.5	10	5.8
B10		7.54	6.9	0.632	2.8

Target: T2, APJ-eGFP fusion protein on CHO-M1 cells (UniProt P35414 1-380)
T2 sequence (looked up): T1 sequence (looked up)
Test: cell-based or functional assay
Conditions: not given

Molecule	Internalization Score
B11	2
B12	0
B13	1
B14	1
B15	0
B16	1
B17	0
B18	1
B19	3
B20	2
B21	0
B1	3
B2	3
B3	2
B4	1
B5	2
B6	1
B7	0
B8	3
B9	2
B10	2

Tested on: not listed separately
Test: Proteolysis during production detected using mass spectroscopy
Format: physicochemical
Conditions: proteolytic stability
Excerpt: Proteolysis during production was detected using mass spectroscopy, which provides insights into the proteolytic stability of the apelin receptor agonists.

Molecule	Proteolysis During Production?
B22	No
B23	No
B24	No
B25	Yes
B26	No
B27	No
B28	No

Tested on: APJ-eGFP fusion protein
Test: Internalization assay, CHO-M1 cells expressing APJ-eGFP, high-content imaging
Format: cell-based
Design: key: 0: No Internalization; >1000; 2: 100-1000; 3: 10-100; 4: <10
Conditions: lowest concentration at which maximum internalization was observed; 0.914 nM to 2000 nM
Procedure: In this example, the internalization of exemplary apelin receptor agonist was assessed. CHO-M1 cells expressing an APJ-eGFP fusion protein were stained and plated in a 96-well plate. Apelin receptor agonists were serially diluted and added to the wells at concentrations ranging from 0.914 nM to 2000 nM. The cells were later imaged using an Operetta CLS™ high-content analysis system. APJ-eGFP signal was measured in the membrane and cytoplasmic region, and the ratio of membrane signal to total signal was calculated (E ratio). An internalization score was assigned based on the lowest concentration of the compound at which maximum internalization was observed. The internalization score for each apelin receptor agonist was plotted against the EC50 values for cAMP signaling and beta-arrestin signaling as shown in FIG. 2 and FIG. 3.

Molecule	Internalization Score
B22	0
B23	1 (>1000)
B24	0
B25	2 (100-1000)
B26	1 (>1000)
B27	0
B28	0
